Assay [1] deals with T1, human CX3CR1 T280M (human, UniProt P49238 1-355).
T1 construct: Transiently transfected in HEK293T cells (pcDNA3.1); also called huCX3CR1 variant T280M (Rs3732378)
T1 sequence: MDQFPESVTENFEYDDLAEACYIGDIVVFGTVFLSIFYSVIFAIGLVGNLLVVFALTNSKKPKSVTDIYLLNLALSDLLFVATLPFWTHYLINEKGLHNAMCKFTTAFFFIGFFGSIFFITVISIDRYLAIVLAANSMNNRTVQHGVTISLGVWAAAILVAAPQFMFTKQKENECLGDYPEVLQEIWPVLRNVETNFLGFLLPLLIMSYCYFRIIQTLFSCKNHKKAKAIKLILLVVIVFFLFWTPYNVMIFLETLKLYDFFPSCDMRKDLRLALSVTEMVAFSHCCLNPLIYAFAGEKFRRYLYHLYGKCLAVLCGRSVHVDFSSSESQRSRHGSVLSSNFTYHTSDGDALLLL
Kind of assay: flow cytometry on transiently transfected HEK293T cells, human CX3CR1 T280M. Here is the method:
(§1) After washing, serial dilutions of multivalent ISVD construct (starting from 250 nM, 3-fold dilution, 11 points, diluted in assay buffer), were added and incubated for 4 hours at 4° C. Binding was performed in the presence of 30 uM HSA (Sigma-Aldrich, Cat. No. A8763). Plates were then washed 3 times and cells were incubated with an anti-VHH mouse antibody (3300-fold diluted in assay buffer) for 30 minutes at 4′° C. […] Plates were finally washed 3 times and cells were resuspended in PI (Miltenyi Biotec, Cat. No. 130-093-233, 1000-fold diluted in assay buffer). Cell suspensions were analyzed with iQue Screener PLUS (Intellicyt). EC50s were estimated by dose response modelling. Curves were fit using 4 parameter logistic regression in GraphPad (GraphPad Software Inc.). A purified anti-human CX3CR1 antibody [K0124E1] (BioLegend, Cat. No. 355701/355702) was used as positive control to detect CX3CR1 expression on the cell surface.
(§2) Two important SNPs are described in huCX3CR1, i.e. V2491 (Rs3732379) and T280M (Rs3732378), which might influence receptor activity and binding by the ISVD. […] Different combinations of these SNPs were introduced in human CX3CR1, and binding by 5 selected multivalent ISVD constructs was assessed with flow cytometry after transient transfection of the huCX3CR1 variants in HEK293T cells.
(§3) In short, the CX3CR1 constructs were cloned into pcDNA3.1 (ThermoFisher Scientific, Cat. No. V79020) and plasmid DNA was prepared from Escherichia coli TOP10 cells. HEK293T cells were seeded at a concentration of 1.5E06 cells per T75 flask and incubated overnight at 37° C. in DMEM medium (Gibco, Cat. No. 31966) supplemented with 10% FBS (Sigma. Cat. No. F7524). The medium was then replaced by Opti-MEM medium (Gibco, Cat. No. 31985). A mixture of 9 μg plasmid DNA, 27 μL Fugene 6 (Promega, Cat. No. E2691) in a final volume of 1 mL Opti-MEM was incubated for 15 minutes at room temperature and then added to the cells. After 3 hours incubation at 37° C., 10 mL of DMEM supplemented with 20% FBS was added, and incubation continued.

Assay [2] addresses T2, human CX3CR1 V249I/T280M (human, UniProt P49238 1-355).
T2 construct: Transiently transfected in HEK293T cells (pcDNA3.1); also called huCX3CR1 variant V249I and T280M
T2 chain: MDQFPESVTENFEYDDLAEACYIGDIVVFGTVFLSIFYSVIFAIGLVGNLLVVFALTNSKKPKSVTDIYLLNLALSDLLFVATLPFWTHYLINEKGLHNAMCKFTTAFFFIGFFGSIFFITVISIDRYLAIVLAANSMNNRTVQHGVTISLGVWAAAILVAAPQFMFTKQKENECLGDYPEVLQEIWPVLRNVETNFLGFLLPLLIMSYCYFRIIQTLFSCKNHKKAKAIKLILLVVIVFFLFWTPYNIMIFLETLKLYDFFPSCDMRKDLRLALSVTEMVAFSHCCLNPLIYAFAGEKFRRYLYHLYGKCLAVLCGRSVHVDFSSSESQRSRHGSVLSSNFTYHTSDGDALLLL
Kind of assay: flow cytometry on transiently transfected HEK293T cells, human CX3CR1 V249I/T280M. How it is done:
as §1, §2, §3

Assay [3] deals with T3, cynomolgus CX3CR1 (cynomolgus monkey (Macaca fascicularis), UniProt P49238 1-355 (human entry)).
T3 construct: Overexpressed on CHO K1 cells; also called cyno CX3CR1; cyCX3CR1
T3 chain: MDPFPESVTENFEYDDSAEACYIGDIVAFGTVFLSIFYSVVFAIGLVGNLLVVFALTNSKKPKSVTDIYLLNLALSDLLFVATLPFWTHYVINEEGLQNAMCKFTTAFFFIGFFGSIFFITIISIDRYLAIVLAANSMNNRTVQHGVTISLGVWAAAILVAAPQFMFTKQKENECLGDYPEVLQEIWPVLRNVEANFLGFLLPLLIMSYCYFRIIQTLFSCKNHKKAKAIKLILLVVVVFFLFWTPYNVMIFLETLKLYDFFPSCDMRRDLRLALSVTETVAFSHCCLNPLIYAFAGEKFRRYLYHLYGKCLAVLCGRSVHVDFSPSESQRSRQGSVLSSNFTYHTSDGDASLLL
Kind of assay: competition flow cytometry vs soluble huCX3CL1-AF647 on CHO K1 cyCX3CR1 cells, 30 uM HSA.

The target in assay [4] is T4, human CX3CR1 (human, UniProt P49238 1-355).
T4 construct: Overexpressed on CHO K1, Ba/F3 or HEK293T cells; also called huCX3CR1; hCX3CR1
T4 sequence: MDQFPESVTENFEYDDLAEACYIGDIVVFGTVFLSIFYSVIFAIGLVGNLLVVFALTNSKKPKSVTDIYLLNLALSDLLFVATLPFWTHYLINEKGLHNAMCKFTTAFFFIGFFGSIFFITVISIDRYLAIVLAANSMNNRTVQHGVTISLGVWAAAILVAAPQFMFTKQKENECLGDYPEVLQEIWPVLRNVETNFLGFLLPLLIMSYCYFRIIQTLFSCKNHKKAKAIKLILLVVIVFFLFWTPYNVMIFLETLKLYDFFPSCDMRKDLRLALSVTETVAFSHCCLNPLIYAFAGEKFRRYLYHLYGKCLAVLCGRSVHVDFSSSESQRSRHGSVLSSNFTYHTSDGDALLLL
Description: competition flow cytometry vs soluble huCX3CL1-AF647 on CHO K1 huCX3CR1 cells, 30 uM HSA.

5 molecules from patent US20240117038A1 (Ablynx, published 2024) can be followed below.

B1: A041600025 (VHH)
chain: DVQLVESGGGSVQPGGSLRLSCAASGSIFSSTAMAWYRQAPGKQRDLVAVISTVGITKYADSVKGRFTISRDNAKNTVYLQMNSLRPEDTALYYCTSDARRGWDTRYWGQGTLVTVSSGGGGSGGGSEVQLVESGGGVVQPGGSLRLSCAASGFTFRSFGMSWVRQAPGKGPEWVSSISGSGSDTLYADSVKGRFTISRDNSKNTLYLQMNSLRPEDTALYYCTIGGSLSRSSQGTLVTVSSGGGGSGGGSEVQLVESGGGSVQPGGSLRLSCAASGSIFSSTAMAWYRQAPGKQRDLVAVISTVGITKYADSVKGRFTISRDNAKNTVYLQMNSLRPEDTALYYCTSDARRGWDTRYWGQGTLVTVSSA
notes: Trivalent ISVD construct (two anti-CX3CR1 ISVDs, one anti-albumin ISVD), C-terminal alanine included in the entry; also called 54A12_SO (E1D)-9GS-ALB23002-9GS-54A12_SO-A
As to B1, the 50% effective concentration (EC50) in assay [1] came out at 0.16 nM; in assay [2], 0.17 nM. The “% inhibition” value in assay [3] came out at 104%; in assay [4], 98%. Also, the IC50 in assay [3] came out at 1.7 nM; in assay [4], 3.8 nM.

B2: A041600034 (VHH)
chain: DVQLVESGGGSVQPGGSLRLSCAASGSIFSSTAMAWYRQAPGKQRDLVAVISTVGITKYADSVKGRFTISRDNAKNTVYLQMNSLRPEDTALYYCTSDARRGWDTRYWGQGTLVTVSSGGGGSGGGSEVQLVESGGGVVQPGGSLRLSCAASGFTFRSFGMSWVRQAPGKGPEWVSSISGSGSDTLYADSVKGRFTISRDNSKNTLYLQMNSLRPEDTALYYCTIGGSLSRSSQGTLVTVSSGGGGSGGGSEVQLVESGGGSVQPGGSLRLSCAASGSIFSSTAMAWYRQAPGKRRDLVAAINTVGVTKYADSVKGRFTISRDNAKNTVYLQMNSLRPEDTALYYCTSDPRRGWDTRYWGQGTLVTVSSA
notes: Trivalent ISVD construct; also called 54A12_SO (E1D)-9GS-ALB23002-9GS-66B02_SO-A
In the case of B2, the figures for the EC50 in assay [1] and in assay [2] were 0.074 nM and 0.09 nM, respectively. Moreover, the “% inhibition” value came to 104% in assay [3] and 95% in assay [4]. Besides, the IC50 in assay [3] came to 1.8 nM; in assay [4], 4.5 nM.

B3: A041600085 (VHH)
chain: DVQLVESGGGLVQPGGSLRLSCAASGSIFSSTAMAWYRQAPGKRRDLVAAISTVGVTKYADSVKGRFTISRDNSKNTVYLQMNSLRPEDTAVYYCTSDPRRGWDTRYWGQGTLVTVSSGGGGSGGGSEVQLVESGGGVVQPGGSLRLSCAASGFTFRSFGMSWVRQAPGKGPEWVSSISGSGSDTLYADSVKGRFTISRDNSKNTLYLQMNSLRPEDTALYYCTIGGSLSRSSQGTLVTVSSGGGGSGGGSEVQLVESGGGLVQPGGSLRLSCAASGSIFSSTAMAWYRQAPGKRRDLVAAISTVGVTKYADSVKGRFTISRDNSKNTVYLQMNSLRPEDTAVYYCTSDPRRGWDTRYWGQGTLVTVSSA
notes: also called 307-9GS-ALB23002-9GS-307 (D1E)-A
For B3, the EC50 in assay [1] was 0.17 nM. Moreover, in assay [3], the “% inhibition” value was found to be 102% and the IC50 stood at 1.1 nM. In addition, in assay [4], the “% inhibition” value came to 103% and the IC50 came out at 7.7 nM.

B4: A041600035 (VHH)
chain: DVQLVESGGGSVQPGGSLRLSCAASGSIFSSTAMAWYRQAPGKQRDLVAVISTVGITKYADSVKGRFTISRDNAKNTVYLQMNSLRPEDTALYYCTSDARRGWDTRYWGQGTLVTVSSGGGGSGGGSEVQLVESGGGSVQPGGSLRLSCAASGSIFSSTAMAWYRQAPGKQRDLVAVISTVGITKYADSVKGRFTISRDNAKNTVYLQMNSLRPEDTALYYCTSDARRGWDTRYWGQGTLVTVSSGGGGSGGGSEVQLVESGGGVVQPGGSLRLSCAASGFTFRSFGMSWVRQAPGKGPEWVSSISGSGSDTLYADSVKGRFTISRDNSKNTLYLQMNSLRPEDTALYYCTIGGSLSRSSQGTLVTVSSA
notes: Trivalent ISVD construct (two anti-CX3CR1 ISVDs, one anti-albumin ISVD), C-terminal alanine included in the entry; also called 54A12_SO (E1D)-9GS-54A12_SO-9GS-ALB23002-A
As to B4, the EC50 in assay [1] turned out to be 0.2 nM; in assay [2] it was 0.27 nM. Besides, the “% inhibition” value amounted to 105% in assay [3] and 99% in assay [4]. Further, the IC50 stood at 1.1 nM in assay [3] and 2.5 nM in assay [4].

B5: A041600041 (VHH)
chain: DVQLVESGGGSVQPGGSLRLSCAASGSIFSSTAMAWYRQAPGKQRDLVAVISTVGITKYADSVKGRFTISRDNAKNTVYLQMNSLRPEDTALYYCTSDARRGWDTRYWGQGTLVTVSSGGGGSGGGSEVQLVESGGGSVQPGGSLRLSCAASGSIFSSTAMAWYRQAPGKRRDLVAAINTVGVTKYADSVKGRFTISRDNAKNTVYLQMNSLRPEDTALYYCTSDPRRGWDTRYWGQGTLVTVSSGGGGSGGGSEVQLVESGGGVVQPGGSLRLSCAASGFTFRSFGMSWVRQAPGKGPEWVSSISGSGSDTLYADSVKGRFTISRDNSKNTLYLQMNSLRPEDTALYYCTIGGSLSRSSQGTLVTVSSA
notes: Trivalent ISVD construct (two anti-CX3CR1 ISVDs, one anti-albumin ISVD), C-terminal alanine included in the entry; also called 54A12_SO (E1D)-9GS-66B02_SO-9GS-ALB23002-A
With B5, the half-maximal effective concentration (EC50) in assay [1] was 0.22 nM. For the same molecule, the entries for the “% inhibition” value in assay [3] and in assay [4] were 107% and 97%, respectively. In addition, the values for the IC50 in assay [3] and in assay [4] were 1.8 nM and 2.7 nM, respectively.
